Here are results for one substance from patent US20220025056A1.

The target of assay [1] is ILT-2_6xHis recombinant protein (human) (UniProt Q8NHL6). The assay can be described thus: Octet BLI, antibody on anti-mouse Fc sensor, soluble ILT2 analyte.
The target of assay [2] is human ILT2 (LILRB1) expressed at the surface of transfected cells (human) (UniProt Q8NHL6). Nature of the assay: flow cytometry, CHO-ILT2 cells.
Sequence of human ILT2 (LILRB1) expressed at the surface of transfected cells (human) (Q8NHL6 24-650): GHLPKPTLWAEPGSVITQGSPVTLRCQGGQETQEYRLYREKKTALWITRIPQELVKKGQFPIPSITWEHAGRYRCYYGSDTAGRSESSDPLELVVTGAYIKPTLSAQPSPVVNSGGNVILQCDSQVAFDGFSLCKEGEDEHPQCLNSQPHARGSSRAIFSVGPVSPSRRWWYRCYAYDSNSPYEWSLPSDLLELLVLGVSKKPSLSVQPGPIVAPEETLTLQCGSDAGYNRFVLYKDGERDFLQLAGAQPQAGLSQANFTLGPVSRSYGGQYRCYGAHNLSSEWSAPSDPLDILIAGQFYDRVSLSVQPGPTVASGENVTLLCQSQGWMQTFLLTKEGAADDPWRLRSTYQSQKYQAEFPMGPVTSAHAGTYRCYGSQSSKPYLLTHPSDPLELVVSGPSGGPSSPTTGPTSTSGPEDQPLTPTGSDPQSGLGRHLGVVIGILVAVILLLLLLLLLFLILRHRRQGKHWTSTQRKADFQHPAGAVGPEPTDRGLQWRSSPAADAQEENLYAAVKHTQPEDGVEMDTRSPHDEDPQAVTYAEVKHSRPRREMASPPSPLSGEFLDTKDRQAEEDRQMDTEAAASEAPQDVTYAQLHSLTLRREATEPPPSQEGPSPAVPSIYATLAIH

Sequence of ILT-2_6xHis recombinant protein (human) (Q8NHL6 other isoform, or with tags, fused parts or gaps limits assumed): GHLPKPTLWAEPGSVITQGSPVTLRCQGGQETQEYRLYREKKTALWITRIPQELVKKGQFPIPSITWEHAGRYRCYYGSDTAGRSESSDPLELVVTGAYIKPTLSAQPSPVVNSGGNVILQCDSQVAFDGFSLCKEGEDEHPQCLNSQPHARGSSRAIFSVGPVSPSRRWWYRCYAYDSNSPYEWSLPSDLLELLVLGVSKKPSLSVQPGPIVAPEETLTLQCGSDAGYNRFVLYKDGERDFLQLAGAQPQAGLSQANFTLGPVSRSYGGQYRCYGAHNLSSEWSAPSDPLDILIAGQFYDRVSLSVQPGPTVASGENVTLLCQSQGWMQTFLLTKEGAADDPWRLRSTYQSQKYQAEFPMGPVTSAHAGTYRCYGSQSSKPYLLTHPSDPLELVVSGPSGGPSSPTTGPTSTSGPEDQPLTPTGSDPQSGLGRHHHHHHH

Take GHI/75 (antibody): in assay [1], the Kd stood at 28.1 nM, the koff worked out at 0.00038 s⁻¹ and the kon came to 13000 M⁻¹ s⁻¹. Moreover, the EC50 in assay [2] turned out to be 5.39 µg/mL.
